We go through one variant from IntAct's records for PubMed 16712842.

The chains are these.
B1: UV excision repair protein RAD23 homolog B (Homo sapiens), P54727 (parent)
chain: MQVTLKTLQQQTFKIDIDPEETVKALKEKIESEKGKDAFPVAGQKLIYAGKILNDDTALKEYKIDEKNFVVVMVTKPKAVSTPAPATTQQSAPASTTAVTSSTTTTVAQAPTPVPALAPTSTPASITPASATASSEPAPASAAKQEKPAEKPAETPVATSPTATDSTSGDSSRSNLFEDATSALVTGQSYENMVTEIMSMGYEREQVIAALRASFNNPDRAVEYLLMGIPGDRESQAVVDPPQAASTGAPQSSAVAAAAATTTATTTTTSSGGHPLEFLRNQPQFQQMRQIIQQNPSLLPALLQQIGRENPQLLQQISQHQEHFIQMLNEPVQEAGGQGGGGGGGSGGIAEAGSGHMNYIQVTPQEKEAIERLKALGFPEGLVIQAYFACEKNENLAANFLLQQNFDED

The variants in the first assay derive from B1. Particulars: with ef1a1_human EEF1A1, P68104.
Chain of ef1a1_human EEF1A1, P68104 (P68104 whole entry): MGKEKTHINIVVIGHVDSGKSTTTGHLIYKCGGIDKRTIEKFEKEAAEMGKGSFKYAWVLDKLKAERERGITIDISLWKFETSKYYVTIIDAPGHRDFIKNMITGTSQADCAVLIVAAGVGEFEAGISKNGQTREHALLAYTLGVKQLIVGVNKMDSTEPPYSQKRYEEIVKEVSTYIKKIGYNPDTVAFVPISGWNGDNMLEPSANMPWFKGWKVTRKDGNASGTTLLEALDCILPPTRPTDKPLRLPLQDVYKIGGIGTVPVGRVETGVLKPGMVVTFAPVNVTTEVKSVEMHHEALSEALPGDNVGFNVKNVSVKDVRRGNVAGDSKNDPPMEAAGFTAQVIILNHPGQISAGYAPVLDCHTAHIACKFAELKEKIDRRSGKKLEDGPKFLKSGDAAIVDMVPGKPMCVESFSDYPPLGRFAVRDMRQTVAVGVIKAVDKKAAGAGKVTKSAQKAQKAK
K6A: the “effect of a mutation on the interaction” value is “disrupting interaction”.

In the next assay the parent is B1. As to conditions: with uba3_human UBA3, Q8TBC4.
Chain of uba3_human UBA3, Q8TBC4 (Q8TBC4 whole entry): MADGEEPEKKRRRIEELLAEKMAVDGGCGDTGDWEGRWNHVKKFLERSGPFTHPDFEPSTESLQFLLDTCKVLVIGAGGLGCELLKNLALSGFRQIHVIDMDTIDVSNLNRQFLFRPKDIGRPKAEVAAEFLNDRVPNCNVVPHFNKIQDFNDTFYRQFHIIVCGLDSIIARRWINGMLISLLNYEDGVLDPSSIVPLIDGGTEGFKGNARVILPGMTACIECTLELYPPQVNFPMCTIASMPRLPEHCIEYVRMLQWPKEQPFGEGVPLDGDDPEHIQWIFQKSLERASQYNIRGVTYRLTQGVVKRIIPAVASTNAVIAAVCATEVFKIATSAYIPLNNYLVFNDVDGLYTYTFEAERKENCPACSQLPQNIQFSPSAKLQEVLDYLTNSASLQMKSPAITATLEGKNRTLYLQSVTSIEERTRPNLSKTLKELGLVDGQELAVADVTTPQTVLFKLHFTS
With K6A, the “effect of a mutation on the interaction” value was “increasing interaction”.
